% Positive and Percent Positive Pixel per total Pixel data for three substances are collected here from patent US20170037151A1.

One assay concerns the target Total SYK (human) (UniProt P43405). The assay can be described thus: IHC pathology score, share of the 15 human DLBCL biopsies scored positive.
For the next assay, the target named is SYK pY323 (human) (UniProt P43405). The assay is described as above.
For assay [1], the target named is endogenous pSYK (activated SYK, pSYK Y525/526) in stimulated human lymphoma/leukemia cells, xenografts and biopsies (human) (UniProt P43405). Described as above.
Assay [2] shares this target. The assay can be described thus: IHC, PHTX95L xenograft, SYK inhibitor-treated mice, Aperio positive pixel count.
Assay [3] shares this target. Kind of assay: IHC, PHTX 95L xenograft untreated, Aperio positive pixel count.

In the case of “Epitomics 1688-1 anti-hSYK (total SYK) antibody”, in the assay with Total SYK (human), the % Positive was found to be 100%.

Turning to Epitomics 2173 anti-SYK pY323 antibody, the % Positive with SYK pY323 (human) is 40%. In assay [1], “Epitomics 2175-1 anti-pSYK Y525/526 antibody” had a % Positive of 40%. Further, the Percent Positive Pixel per total Pixel in assay [2] was found to be 0.56%; in assay [3], 8.21%.
